{
  "source": "patent US5340925A",
  "about": "“Normal human growth regulatory receptor for TGF-β” (Oncogen, priority 1992, dated 1994)",
  "target": "T1, HEPM cell-surface receptors for TGF-β (Homo sapiens, UniProt Q03167)",
  "T1 construct": "endogenous in cells; host or cells: HEPM (human embryonic palatal mesenchyme) cells, intact monolayers",
  "T1 sequence (Q03167 21-851)": "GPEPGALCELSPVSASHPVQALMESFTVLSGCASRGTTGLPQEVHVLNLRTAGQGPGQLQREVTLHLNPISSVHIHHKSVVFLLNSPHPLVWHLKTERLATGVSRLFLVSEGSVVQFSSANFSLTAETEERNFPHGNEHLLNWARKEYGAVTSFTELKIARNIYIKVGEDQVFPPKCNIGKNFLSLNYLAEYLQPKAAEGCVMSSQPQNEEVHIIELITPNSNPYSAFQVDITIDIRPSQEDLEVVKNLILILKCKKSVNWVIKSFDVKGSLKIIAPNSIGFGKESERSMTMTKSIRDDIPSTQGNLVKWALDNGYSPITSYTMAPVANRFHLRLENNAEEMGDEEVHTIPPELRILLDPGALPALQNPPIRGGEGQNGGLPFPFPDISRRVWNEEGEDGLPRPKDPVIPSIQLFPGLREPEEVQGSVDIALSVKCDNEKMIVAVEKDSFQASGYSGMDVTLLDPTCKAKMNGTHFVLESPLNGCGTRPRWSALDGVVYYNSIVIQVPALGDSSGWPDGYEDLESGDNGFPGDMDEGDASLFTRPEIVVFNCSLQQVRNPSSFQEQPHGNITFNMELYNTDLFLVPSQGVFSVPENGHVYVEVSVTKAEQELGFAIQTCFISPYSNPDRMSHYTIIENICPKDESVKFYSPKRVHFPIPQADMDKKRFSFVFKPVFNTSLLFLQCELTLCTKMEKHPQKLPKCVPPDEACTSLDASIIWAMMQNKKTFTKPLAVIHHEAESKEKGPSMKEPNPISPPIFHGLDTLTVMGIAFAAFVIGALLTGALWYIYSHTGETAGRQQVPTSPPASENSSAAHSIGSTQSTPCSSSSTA",
  "assay": "Radioreceptor assay: [125I]-iodo-TGF-β1 in competition with unlabeled TGF-β1, Scatchard analysis",
  "format": "binding",
  "conditions": "for Kd: untreated HEPM cells, Scatchard two-site model",
  "description": "HEPM cells were grown to confluence (1×10^5 cells/well) in 24-well Costar tissue culture plates. Prior to the binding assay, cells were pre-incubated in serum-free growth medium at 37° C. for 4 hours to allow for the dissociation of TGF-β from occupied cells surface receptors. The resulting monolayers were washed 2 times in binding buffer (Dulbecco's MEM+0.1% BSA+25 mM HEPES). 250 μl of binding buffer containing 0.5 μg/ml [^125 I]-iodoTGF-β1, (specific activity of 100 μCi/μg) together with increasing amounts of unlabeled TGF-β1 were added to duplicate wells. Steady state binding was carried out at 4° C. for 3 hours. After incubation cells were washed 3 times with cold binding buffer and solubilized in 200 μl of Triton solution (20 mM HEPES, 1% Triton X-100, 10% glycerol, 0.01% BSA, pH 7.4). Radioactivity was determined using a gamma spectrometer. Non-specific binding was determined in the presence of a 1,000-fold molar excess unlabeled TGF-β1.\nThe radioreceptor assay described in Materials and Methods was used to characterize the affinity and number of cell-surface receptors for TGF-β on HEPM cells. Specific binding of [^125 I]-iodo-TGF-βin these assays was 20% of the total radioligand present. […] Half-maximal displacement of radioligand occurred at 100 pM (2.6 ng/ml) unlabeled TGF-β1. Competitive binding data were plotted according to the method of Scatchard (Scatchard, et al., 1947, Ann. NY Acad Sci 51:660-672) and the results are presented in FIG. 5. A distinctly curvilinear isotherm was obtained indicating the presence of at least two classes of binding sites on HEPM cells. […] Quantitative analysis determined that HEPM cells contain a total of 287,000 TGF-β receptors per cell (55,400 high affinity and 231,600 low affinity sites).",
  "note": "Where two headings read alike, the source gives them in different places.",
  "data": [
    {"substance": "TGF-β1: Transforming growth factor-Beta type 1; two identical disulfide linked subunits having molecular weights of 13,000; recombinant material used", "values": [
      {"measurement": "half-maximal displacement of radioligand", "setting": "unlabeled TGF-β1 vs [125I]-iodo-TGF-β1, 4° C., 3 hours", "result": 2.6, "unit": "ng/mL"},
      {"measurement": "IC50", "setting": "unlabeled TGF-β1 vs [125I]-iodo-TGF-β1, 4° C., 3 hours, read-out: half-maximal displacement of radioligand / half-maximal receptor occupancy", "result": 0.1, "unit": "nM"},
      {"measurement": "Kd", "setting": "read-out: kd, high-affinity (low capacity) site", "result": 0.058, "unit": "nM"},
      {"measurement": "Kd", "setting": "read-out: kd, low-affinity (high capacity) site", "result": 0.898, "unit": "nM"}
    ]}
  ]
}
